Measurements published in the RNAGym collection of RNA variant scans (doi:10.1073/pnas.2313332121).

B1: TPR t1 (parent)
chain: GACCAAUCUGCCCUCAGAGCUCGAGAACAUCUUCGGAUGCAGAGGAGGCAGGCUUCGGUGGCGCGAUAGCGCCAACGUCCUCAACCUCCAAUGCAUCCCACCACAUGAUGAUGCCUGAAGAGCCUUGGUUUUUUG

Variants of: B1
Assay: polymerase ribozyme fitness, log enrichment relative to wild type (log ratio); higher = more active; in vitro selection for triplet polymerase activity
Method in brief: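 Fitness measures genotype enrichment against wild-type enrichment on a logarithmic scale, with inverse-variance-weighted averaging of replicates. The logarithm is base 2, and genotypes were kept only with ≥10 input reads and ≥1 read per output in Illumina sequencing. The sequenced libraries came from one triplicate in vitro selection round, including frozen incubation at −7 °C, of PCR-built, transcribed mutant libraries of each subunit of a heterodimeric triplet polymerase ribozyme.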

Variant | polymerase ribozyme fitness (log ratio)
A43G A50G C70A C101U | -5.22
G42U G110A | -2.74
A43C U87A G110A | -5.45
A43C C53U G110C | -7.24
A43C G61U G117A | -3.52
A43C U87G | -2.73
G42U U96C | -1.58
A43U A74U C104U C115U | -3.23
A43C G117C | -4.86
A43G U112A | -0.27
G44A A75U | -1.11
G42U G44U C53U G69U C79A G127U | -3.88
A43U C56U C79A | -3.22
A43U U78C | -1.53
A43G A74G C89U U109G | -7.22
A43G G44U G48A U78C C124A | 0.343
A43U C76U C123G | -0.376
G42U G71A A100U | -4.8
A43C G47A | -4.53
A43G C97U | -1.61
G42U G60A G128C | -3.97
G42U G45A | -1.25
A43U G93U U112A G127C | -2.82
G42U G48A G52C C56G G69U G127U | -3.16

Variant | polymerase ribozyme fitness (log ratio)
A43U G63U | -3.68
A43U A46U | -2.27
A43G G63C U96C | -2.76
A43U G48A A100C A111G | -5.16
G42U G71U C101U | -1.49
A43U C49G U54A | -2.2
A43C A46C G60A U87A C101U | -2.45
G42U U92A A118U | -2.03
A43U U106A A108U U112A | -2.46
A43C C115G | -3.94
A43U A46U G58C G60A | -2.67
A43C C73A U81G C86U | -6.91
A43C G120U | -2.7
A43G G71A A100U | -6.07
A43G A50G G60A | -4.16
A43U C115A C124U | -0.864
A43C G63C C102A A121U C123U | -5.76
A43G C124G | 0.268
A43U A46U C56A | -2.93
A43U G44C | -1.05
A43C G47U U112A G135A | -1.87
A43U C53U C72A A91U A105G U106A U125G | -2.96
A43U G135U | -0.971
G44A A84U | -0.594

Variant | polymerase ribozyme fitness (log ratio)
A43G G58A C85U U112C | -1.68
G42U C89U | -0.954
A43C U92G C101A U132A | -4.9
A43C G48C G113C A119C G120U A121G | -2.55
A43C C85G | -3.37
A43C G45U C73A A91U G93A U112A G128C | -5.37
A43C G44C G71C A118U U133G | -1.6
A43C A46C U96A U106A U116G C123A | -7.89
A43U G45A C56A | -1.86
G42U U55G U125A | -1.45
A43G C89U | -1.2
A43U A50C C73U U78C C94G | -4.28
A43C A50G G61A C115A U116C | -4.2
A43G C56G G69U A108G C124A | -2.3
A43G G60A | -2.12
A43U G45A U96A A108G C123G | -4.02
A43U G52C C72U | -2.16
A43U A74G | -1.55
A43G G58C C62A C85U | -6.11
G42U C72G C99A A103C C123U | -6.66
A43U G48U C56G U116A | -6.74
A43U C73U C123G G127C | -1.76
G42U G44A C70A G127U | -4.25
G42U G58C C82G U87C | -2.71

Variant | polymerase ribozyme fitness (log ratio)
G42U G113U | -3.06
G42U G113C | -3.23
A43G U92A | -2.96
A43G G63A G77C A90G G127U G135C | -3.69
G42U C62A | -3.21
A43G G63U C115U | -4.05
G44A A50U G60A U132C | -2.42
G42U G52A C72U U78A G128U | -4.36
G44A A66G U133G | -2.29
A43U C88G A95U | -3.19
G42U G45U C88G G110A | -3.96
G42U C115U | -1.27
G42U C115G | -1.8
A43U U59C | -1.99
A43C C56U C82A A91U G93U U96C C124G | -2.46
A43U C88A | -1.18
A43U G120A | -0.64
G42U G128A | -3.14
G42U G71C A111C U130C | -3.75
G44A A68G C70G C72A G110A G122A C124A | -7.69
A43U G44C G45A A83C G110A | -6.81
G42U U54G A68G | -5.22
G42U G63A C82U | -2.86
A43U U87A G117A | -3.08

Variant | polymerase ribozyme fitness (log ratio)
A43C C72U A103U U125A | -6.47
A43U G63A A95G G120U G128U | -4.88
A43U C114G | -3.27
A43C G77A | -2.79
A43C G77C | -2.27
A43U C79U | -0.702
G44A A66U C76A | -4.64
A43G G52U | -2.44
A43G A74U | -2.25
A43G A74C | -2.19
A43U U112G G127U | -2.19
A43G C53A U109A A119G | -5.89
A43U G113C | -3.56
A43G U54C A95U A121C U129A | -2.96
G42U G93C | -2.17
A43U G45A C53U C56G C62U A84U | -1.89
A43G G117U | -4.21
A43G A50G G63C | -3.02
G42U G69U C115A | -1.45
A43U C88U A95C | -2.51
G42U G45A G63C | -1.98
A43G A108G | -4.26
A43U C62G U112G G113C G122U | -6.69
A43G G63C C82G | -4.47

Variant | polymerase ribozyme fitness (log ratio)
G42U G77C C80U A84U C97U | -3.47
A43G U59A C99U | -6.09
A43U G45U | -1.71
A43C C53G C70U A95C | -5.1
A43U C56U | -1.59
A43C G61U C85U | -2.37
A43G U133G | -1.7
A43C C86U | -2.14
A43G G107U G110C A118U C124A | -7.12
G42U G63C | -2.22
G42U G63A | -2.77
A43U A91U G110A G120C | -5.56
A43U A83U | -1.8
A43C A68G U109A G117U | -6.95
A43U G45A G58C | -1.24
A43U U78C G93A | -1.95
A43G G113A | -2.18
A43C G71U U112C G135A | -1.05
A43C C72A G122A | -3.17
A43U A46U G47U G117U | -7.8
A43U A50U U81A A91G U92G | -3.02
A43C G61U C82U C104G C123A | -7.32
A43C C49A G52A C73U U81C A95C C123A | -6.02
A43C G52A | -2.92

Variant | polymerase ribozyme fitness (log ratio)
A43U G48U A50U C62U C88G C101G U112A | -5.19
A43C C53A C56A C72A | -2.36
A43U G120C U132A | 0.0679
A43U C85A | -2.96
A43U A90C G110A A111G U132A | -0.915
A43U C73G C85U C98G C115U | -7.11
A43U C72A C114U G128C | -5.92
G42U G47C | -5.66
G42U G47U | -1.51
A43U G48A | -1.56
A43U C49U A75U G113C C123U | -3.62
A43C G48A C88U | -1.82
A43C U54C G58A C86A | -3.78
A43U C62G C82A C101A C123G | -4.38
A43G G60A G107C C114U G120U U133G | -3.85
G44A A75U A118G | -1.19
A43G C53A U78C C88U | -1.22
G42U U59C U87A A100U | -4.01
A43C G47U C53U C88G C104U | -6.05
A43C G48A | -2.56
A43C G47U G52A C56U | -4.62
A43C C49U C70A C102U G110A G128C U131G | -6.44
A43U A46C C115U U116C | -2.39
